The text below walks through data of US5677146.

The target of assay [1] is Urokinase (5 nM), Serono, Freigung, Germany.
Assay [2] deals with human Factor XIIa (30 nM) (human) (UniProt P00748).
The target of assay [3] is plasma kallikrein (3 nM), Kabi.
Assay [4] concerns the target T1, Cathepsin G, purified at Novo Nordisk A/S using the method of Baugh and Travis.
T1 sequence (P08311 21-244, species assumed, looked up): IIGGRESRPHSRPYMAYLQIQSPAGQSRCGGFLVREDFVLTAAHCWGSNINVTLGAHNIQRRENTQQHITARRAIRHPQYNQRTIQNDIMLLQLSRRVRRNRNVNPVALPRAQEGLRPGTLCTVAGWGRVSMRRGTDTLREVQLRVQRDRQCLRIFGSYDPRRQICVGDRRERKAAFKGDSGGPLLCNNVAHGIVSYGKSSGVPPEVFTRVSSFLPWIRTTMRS

The target in assay [5] is Chymotrypsin (2.5 nM), Novo Nordisk A/S.
The target of assay [6] is Trypsin (8 nM), Novo Nordisk A/S, Bagsvaerd, Denmark.
For assay [7], the target named is human Factor XIa (1 nM) (human) (UniProt P03951).
Assay [8] has as its target recombinant human activated protein C (5 nM), Novo Nordisk A/S (human) (UniProt P04070).
Assay [9] concerns the target recombinant human Factor VIIa (300 nM), Novo Nordisk A/S (human) (UniProt P08709).
Assay [10] addresses glandular kallikrein (1 U/ml), Sigma, St Louis, MO.
The target of assay [11] is Plasmin (10 nM), Kabi.
Assay [12] concerns the target Leukocyte Elastase, purified at Novo Nordisk A/S using the method of Baugh and Travis.
Assay [13] addresses human Factor Xa (3 nM) (human) (UniProt P00742).

On to “APPH Kunitz-type inhibitor domain as tested in Table 3”, for which the % Inhibition (in general, the percentage by which the read-out fell short of the control) in assay [1] was 2%; in assay [2], 6%; in assay [3], 69%; in [4], 0%; in [5], 61%; in [6] it was 99.6%. The % Inhibition is 99.8% in assay [7]; 0% in [8]; 15% in [9]; 97% in assay [10]; 77% in assay [11]; 4% in assay [12]. The substance also showed a % Inhibition in assay [13] of 0%.
